For one substance, FW signal relative to that for Sec31A (of the signal for Sec31A) and relative binding activity (percent of WT) results are on record in publication PMC4346919.

Targets include GST-8 aa-fusion of CHERP; GST-8 aa-fusion of RBM22; GST-8 aa-fusion of SET1B.
Assay in all cases: far-Western, overlay or dot blot; purified GST-fused peptides resolved by SDS-PAGE, transferred to PVDF membranes and probed with biotin-labeled ALG-2; chemiluminescence, quantified with ImageJ
Experiment [1] addresses substitution of Pro with Ala at position 2, 4 or 5 (P2A, P4A or P5A) or substitution of Pro5 with Leu (P5L).

Chain of biotin-labeled ALG-2 (O75340 whole entry): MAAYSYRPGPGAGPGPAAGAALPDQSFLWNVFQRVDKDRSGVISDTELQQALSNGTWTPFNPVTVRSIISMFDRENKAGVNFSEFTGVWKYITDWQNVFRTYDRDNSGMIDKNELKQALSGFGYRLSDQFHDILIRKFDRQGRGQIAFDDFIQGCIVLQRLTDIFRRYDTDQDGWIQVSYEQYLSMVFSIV

Consider “biotin-labeled ALG-2 (from UniProt O75340 1-191) (natural protein)”, for which the FW signal relative to that for Sec31A (of the signal for Sec31A) with GST-8 aa-fusion of CHERP, with GST-8 aa-fusion of RBM22 and with GST-8 aa-fusion of SET1B was below 0.0625 each time. For the same substance, in experiment [1], the relative binding activity (percent of WT) is 40 to 75 % of WT.
